In patent publication US7985739, “Enhanced sleeping beauty transposon system and methods for using the same” (The Board of Trustees of the Leland Stanford Junior …):

Tests used:
[1] = test system: Sleeping Beauty transposase N123 HSB1 (mutations not given) (salmonid (reconstructed)); assay: EMSA; settings: no change vs WT
[2] = test system: Sleeping Beauty transposase S270A S270A (salmonid (reconstructed)); assay: cell_activity; settings: transposition in HeLa
[3] = test system: Sleeping Beauty transposase K33A K33A (salmonid (reconstructed)); assay: cell_activity; settings: transposition in HeLa; text says improved 400%
[4] = test system: Sleeping Beauty transposase HSB-5 K13A,K33A,T83A,S270A (salmonid (reconstructed)); assay: cell_activity; settings: transposition in HeLa, G418R colonies
[5] = molecular target: T1, Sleeping Beauty transposase N123 (WT) (salmonid (reconstructed)); assay: EMSA; poly(dI)(dC), 22 C; 500-fold cold oligo used as specific competitor; settings: tags: pGADT7 TNT T7 reticulocyte lysate; label: 32P
T1 chain: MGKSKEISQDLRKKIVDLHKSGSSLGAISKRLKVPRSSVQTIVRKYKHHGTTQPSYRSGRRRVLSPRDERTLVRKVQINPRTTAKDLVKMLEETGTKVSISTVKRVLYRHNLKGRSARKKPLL
Description: (§1) Truncated (N123) derivatives of wild-type and mutant SB proteins were generated using the TNT T7 coupled reticulocyte lysate system (Promega) according to the manufacturer's instructions. Double-stranded oligonucleotides corresponding to the outer and inner direct repeats (DRs) from SB's left inverted repeat (IR) were end-labeled using [γ-^32P]ATP and PNK. Complexes were formed in a 10 μl volume containing 10 fmol labeled oligonucleotide, 6 μl of in vitro translation product, 1 μg poly(dI)(dC), and binding buffer as previously described (Ivics et al., 1997). For competitions, increasing amounts (1-500 nM) of the corresponding unlabeled oligonucleotide was added to the reaction. After a 90 minute incubation at 22° C., 5 μl of loading dye was added and each sample was resolved on a 5% polyacrylamide gel for 2-3 hours at 120 volts. Binding affinities were determined by measuring the ratio of bound vs. free radiolabeled probe using a Phosphorimager, and normalized according to the amount bound in the absence of cold competitor minus the amount bound at the highest competitor concentration.

[6] = molecular target: T2, Sleeping Beauty transposase N123 HSB4 (salmonid (reconstructed), K33A,T83A,L91A); assay: EMSA; no change vs WT; settings: tags: pGADT7 TNT T7 reticulocyte lysate; label: 32P
T2 chain: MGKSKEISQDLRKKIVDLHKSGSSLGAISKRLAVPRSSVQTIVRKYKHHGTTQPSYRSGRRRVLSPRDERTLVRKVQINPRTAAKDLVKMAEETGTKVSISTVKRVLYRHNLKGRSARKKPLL
Description: as §1
(§2) Figure 8: FIG. 8. is a comparison of the relative binding affinities of the WT and HSB mutants for transposon binding sites. SB-N123 peptides for WT and hyperactive transposases were complexed with double-stranded radiolabeled oligos encoding the inner (top panel) or outer (bottom panel) DR sequences. Protein-DNA complexes were formed in the presence of increasing amounts of the corresponding unlabeled oligonucleotide. The percent binding was determined using a Phosphorimager and normalized according to the amount of probe bound in the absence of any competitor minus the amount of probe bound at 500 nM.

[7] = molecular target: T3, Sleeping Beauty transposase N123 HSB2 (salmonid (reconstructed), K33A,L91A); assay: EMSA; no change vs WT; settings: tags: pGADT7 TNT T7 reticulocyte lysate; label: 32P
T3 chain: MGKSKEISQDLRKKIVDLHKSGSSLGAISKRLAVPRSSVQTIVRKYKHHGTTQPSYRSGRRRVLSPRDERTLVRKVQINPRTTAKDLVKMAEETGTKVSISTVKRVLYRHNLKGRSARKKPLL
Description: as §1, §2

[8] = molecular target: T4, Sleeping Beauty transposase N123 HSB3 (salmonid (reconstructed), K13A,K33A,T83A); assay: EMSA; no change vs WT; settings: tags: pGADT7 TNT T7 reticulocyte lysate; label: 32P
T4 chain: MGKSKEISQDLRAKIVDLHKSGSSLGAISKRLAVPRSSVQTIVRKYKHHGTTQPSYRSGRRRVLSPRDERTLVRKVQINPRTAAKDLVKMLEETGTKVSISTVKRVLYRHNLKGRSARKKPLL
Description: as §1, §2

[9] = molecular target: T5, Sleeping Beauty transposase N123 R36A (salmonid (reconstructed), R36A); assay: EMSA; settings: tags: pGADT7 TNT T7 reticulocyte lysate; label: 32P
T5 chain: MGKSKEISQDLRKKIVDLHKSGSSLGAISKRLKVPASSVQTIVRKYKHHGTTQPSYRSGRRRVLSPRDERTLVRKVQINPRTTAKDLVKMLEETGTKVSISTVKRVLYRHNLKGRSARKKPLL
Description: as §1

[10] = molecular target: T6, Sleeping Beauty transposase N123 I42A (salmonid (reconstructed), I42A); assay: EMSA; settings: tags: pGADT7 TNT T7 reticulocyte lysate; label: 32P
T6 chain: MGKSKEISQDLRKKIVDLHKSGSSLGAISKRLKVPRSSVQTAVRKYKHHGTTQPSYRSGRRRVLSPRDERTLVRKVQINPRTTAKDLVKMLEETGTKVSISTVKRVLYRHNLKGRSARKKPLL
Description: as §1

[11] = molecular target: T7, Sleeping Beauty transposase N123 L25A (salmonid (reconstructed), L25A); assay: EMSA; settings: tags: pGADT7 TNT T7 reticulocyte lysate; label: 32P
T7 chain: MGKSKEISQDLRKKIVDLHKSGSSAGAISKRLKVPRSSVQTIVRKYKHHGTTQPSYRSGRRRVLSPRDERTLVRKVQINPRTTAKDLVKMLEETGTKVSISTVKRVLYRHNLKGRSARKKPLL
Description: as §1

[12] = molecular target: T2, Sleeping Beauty transposase N123 HSB4; assay: EMSA; cold competition, 1-500 nM; settings: tags: pGADT7 TNT T7 reticulocyte lysate; label: 32P
Description: as §1, §2

[13] = molecular target: T3, Sleeping Beauty transposase N123 HSB2; assay: EMSA; cold competition, 1-500 nM; settings: tags: pGADT7 TNT T7 reticulocyte lysate; label: 32P
Description: as §1, §2

[14] = molecular target: T4, Sleeping Beauty transposase N123 HSB3; assay: EMSA; cold competition, 1-500 nM; settings: tags: pGADT7 TNT T7 reticulocyte lysate; label: 32P
Description: as §1, §2

TCCAGTGGGTCAGAAGTTTACATACACTAAGT (double strand) [inner DR of SB left IR]
binding signal (fold affinity vs WT) [1]: 1

pT/nori neomycin-marked SB transposon (full sequence not given)
activity [2]: 186 % of WT
activity [3]: 400 % of WT
activity [4]: > 10 fold vs WT

B1: inner DR of SB left IR (dsDNA)
DNA 1: TCCAGTGGGTCAGAAGTTTACATACACTAAGT
DNA 2: ACTTAGTGTATGTAAACTTCTGACCCACTGGA
binding result [5]: binds
binding signal [6]: 1 fold affinity vs WT
binding signal [7]: 1 fold affinity vs WT
binding signal [8]: 1 fold affinity vs WT
binding result [9]: binds
binding result [10]: binds
binding result [11]: binds

B2: outer DR of SB left IR (dsDNA)
DNA 1: TACAGTTGAAGTCGGAAGTTTACATACACTTAGG
DNA 2: CCTAAGTGTATGTAAACTTCCGACTTCAACTGTA
binding result [12]: binds
binding result [13]: binds
binding signal [14]: 2 fold affinity vs WT
binding result [5]: binds
